Assay results taken from patent publication US8338168B2.

Columns and labels:
[1] = target: RDPrHIV mutant glycoprotein (feline endogenous virus RD114)
[2] = target: CH-296 retronectin fragment (Homo sapiens (Human)) (UniProt P02751)

Substance | infectivity of MLV pseudotyped vectors on TE671 cells [1] | transduction efficiency of human CD34+ cells on retronectin-coated plates against no retronectin [2]
MLV viral core protease (enzyme) | < 20 fold | –
RD114/TR chimeric glycoprotein | – | 10 fold
